In patent US20260053904A1 (BIOATLA, published 2026):

T1: human EpCAM expressed on cells (CHO, Colo205, 293) (human, UniProt P16422 24-314)
T1 sequence (looked up): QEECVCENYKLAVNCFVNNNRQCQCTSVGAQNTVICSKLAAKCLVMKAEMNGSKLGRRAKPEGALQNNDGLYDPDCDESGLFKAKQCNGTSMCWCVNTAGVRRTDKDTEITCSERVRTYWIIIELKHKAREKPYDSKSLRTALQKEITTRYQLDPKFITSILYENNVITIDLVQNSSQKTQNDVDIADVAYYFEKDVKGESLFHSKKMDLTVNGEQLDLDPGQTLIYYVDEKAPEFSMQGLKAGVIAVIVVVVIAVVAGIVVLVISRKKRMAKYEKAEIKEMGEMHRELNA

T2: recombinant human EpCAM extracellular domain (human, UniProt P16422 24-265)
T2 construct: extracellular domain; Plate-coated antigen of the ELISAs; also called human EpCAM ECD; recombinant EpCAM antigen
T2 sequence (looked up): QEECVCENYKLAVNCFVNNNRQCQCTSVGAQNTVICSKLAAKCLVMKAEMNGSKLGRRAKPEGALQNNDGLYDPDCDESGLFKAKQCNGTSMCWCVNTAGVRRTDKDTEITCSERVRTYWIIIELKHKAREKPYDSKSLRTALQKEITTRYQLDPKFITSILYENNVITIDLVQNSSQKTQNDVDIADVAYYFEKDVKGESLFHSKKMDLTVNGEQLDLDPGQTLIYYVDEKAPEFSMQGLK


How the values were obtained:
[1] = target: T3, cyno EpCAM (recombinant, ELISA antigen) (cynomolgus monkey); experiment: ELISA with pH titration, cyno EpCAM
T3 construct: extracellular domain; also called cynomolgus EpCAM extracellular domain
Method: (§1) Binding activities of the conjugated humanized conditionally active anti-EpCAM antibodies to cyno EpCAM were also measured by ELISA with pH titration. […] The ratios of binding activities at pH 6.0 and pH 7.4 to the cyno EpCAM by the conjugated humanized conditionally active anti-EpCAM antibodies, as well as their pH inflection points are summarized in Table 15.
(§2) The ELISA assay was performed using the following protocol: [0388] 1) Coat ELISA plates with 100 μL of 0.5 μg/mL (06_20_17 and 06_28_17 Experiments) or 1 μg/mL (07_06_17 and 07_11_17 Experiments) recombinant EpCAM antigen in carbonate-bicarbonate coating buffer [0389] 2) Cover plates with sealing film and incubate overnight at 4° C. [0390] 3) Decant plates and tap out residual liquid on a stack of paper towels [0391] […] 5) Add 200 μL of various pH incubation buffers to the wells according to the sample map.
Target sequence in this assay (Q1WER1 24-265): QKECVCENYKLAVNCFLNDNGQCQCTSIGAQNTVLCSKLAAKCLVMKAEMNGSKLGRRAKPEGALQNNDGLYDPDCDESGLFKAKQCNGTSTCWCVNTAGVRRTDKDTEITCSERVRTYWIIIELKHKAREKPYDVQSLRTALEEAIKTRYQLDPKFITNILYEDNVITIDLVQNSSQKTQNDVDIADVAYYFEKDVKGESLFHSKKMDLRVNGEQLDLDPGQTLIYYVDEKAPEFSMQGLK

[2] = target: T1, human EpCAM expressed on cells (CHO, …); experiment: cell-based or functional assay
[3] = target: T4, cyno EpCAM expressed on 293 cells (cynomolgus monkey); experiment: FACS of MMAE conjugates on 293 cells expressing cyno EpCAM, pH 7.4
T4 construct: whole, on cells; also called 293 cells expressing cyno EpCAM
Method: (§3) A similar FACS analysis was also carried out using 293 cells expressing cyno EpCAM. […] The EC50 values for binding to the 293 cells expressing cyno EpCAM by the conjugated humanized conditionally active anti-EpCAM antibodies are summarized in Table 18.

[4] = target: T1, human EpCAM expressed on cells (CHO, …); experiment: FACS of MMAE conjugates on Colo205 cells expressing human EpCAM, pH 6.0
Method: (§4) Binding activities of the conjugated humanized conditionally active anti-EpCAM antibodies (with MMAE) to Colo205 cells expressing human EpCAM was measured by FACS at two different pH: 6.0 and 7.4. […] The EC50 values for binding to the Colo205 cells expressing human EpCAM by the conjugated humanized conditionally active anti-EpCAM antibodies are summarized in Table 16.

[5] = target: T2, recombinant human EpCAM extracellular …; experiment: ELISA of MMAE conjugates, human EpCAM, pH 7.4
Method: (§5) The humanized conditionally active anti-EpCAM antibodies were conjugated to MMAE to create antibody drug conjugates. Binding activities of the conjugated humanized conditionally active anti-EpCAM antibodies to human EpCAM were measured by ELISA at pH 6.0 and pH 7.4 at different antibody concentrations. […] The EC50 values for binding to the human EpCAM by the conjugated humanized conditionally active anti-EpCAM antibodies are summarized in Table 12.
as §2

[6] = target: T1, human EpCAM expressed on cells (CHO, …); experiment: FACS of MMAE conjugates on Colo205 cells expressing human EpCAM, pH 7.4
Method: as §4

[7] = target: T3, cyno EpCAM (recombinant, ELISA antigen); experiment: ELISA with pH titration, cyno EpCAM; ratio of binding activities at pH 6.0 and pH 7.4
Method: as §1, §2
Target sequence in this assay (Q1WER1 24-265): as above

[8] = target: T3, cyno EpCAM (recombinant, ELISA antigen); experiment: ELISA of MMAE conjugates, cyno EpCAM, pH 6.0
Method: (§6) A similar ELISA analysis was also carried out using cyno EpCAM to measure the binding affinities of the conjugated humanized conditionally active anti-EpCAM antibodies. […] The EC50 values for binding to the cyno EpCAM by the conjugated humanized conditionally active anti-EpCAM antibodies are summarized in Table 13.
as §2
Target sequence in this assay (Q1WER1 24-265): as above

[9] = target: T2, recombinant human EpCAM extracellular …; experiment: ELISA with pH titration, human EpCAM
Method: (§7) Binding activities of conjugated humanized conditionally active anti-EpCAM antibodies to human EpCAM were measured by ELISA with pH titration. […] The ratios of binding activities to human EpCAM of the conjugated humanized conditionally active anti-EpCAM antibodies at pH 6.0 and pH 7.4, as well as their pH inflection points are summarized in Table 14.
as §2

[10] = target: T1, human EpCAM expressed on cells (CHO, …); experiment: FACS of MMAE conjugates on 293 cells expressing human EpCAM, pH 6.0
Method: (§8) A similar FACS analysis was also carried out using 293 cells expressing human EpCAM. […] The EC50 values for binding to the 293 cells expressing human EpCAM by the conjugated humanized conditionally active anti-EpCAM antibodies are summarized in Table 17.

[11] = target: T4, cyno EpCAM expressed on 293 cells; experiment: FACS of MMAE conjugates on 293 cells expressing cyno EpCAM, pH 6.0
Method: as §3

[12] = target: T2, recombinant human EpCAM extracellular …; experiment: ELISA of MMAE conjugates, human EpCAM, pH 6.0
Method: as §5, §2

[13] = target: T3, cyno EpCAM (recombinant, ELISA antigen); experiment: ELISA of MMAE conjugates, cyno EpCAM, pH 7.4
Method: as §6, §2
Target sequence in this assay (Q1WER1 24-265): as above

[14] = target: T1, human EpCAM expressed on cells (CHO, …); experiment: FACS of MMAE conjugates on 293 cells expressing human EpCAM, pH 7.4
Method: as §8

[15] = target: T3, cyno EpCAM (recombinant, ELISA antigen); experiment: direct binding ELISA, cyno EpCAM; ratio of the printed IC50 at pH 7.4 to pH 6.0
[16] = target: T2, recombinant human EpCAM extracellular …; experiment: direct binding ELISA, human EpCAM, pH 7.4 (table prints IC50, the text paragraph 376 says EC50)
[17] = target: T3, cyno EpCAM (recombinant, ELISA antigen); experiment: direct binding ELISA, cyno EpCAM, pH 6.0 (printed as IC50)
[18] = target: T3, cyno EpCAM (recombinant, ELISA antigen); experiment: direct binding ELISA, cyno EpCAM, pH 7.4 (printed as IC50)
[19] = target: T2, recombinant human EpCAM extracellular …; experiment: direct binding ELISA, human EpCAM, pH 6.0 (table prints IC50, the text paragraph 376 says EC50)
[20] = target: T2, recombinant human EpCAM extracellular …; experiment: direct binding ELISA, human EpCAM; ratio of the printed IC50 at pH 7.4 to pH 6.0
[21] = target: T2, recombinant human EpCAM extracellular …; experiment: ELISA with pH titration, human EpCAM; ratio of binding activities at pH 6.0 and pH 7.4
Method: as §7, §2

T4 sequence (Q1WER1 24-314): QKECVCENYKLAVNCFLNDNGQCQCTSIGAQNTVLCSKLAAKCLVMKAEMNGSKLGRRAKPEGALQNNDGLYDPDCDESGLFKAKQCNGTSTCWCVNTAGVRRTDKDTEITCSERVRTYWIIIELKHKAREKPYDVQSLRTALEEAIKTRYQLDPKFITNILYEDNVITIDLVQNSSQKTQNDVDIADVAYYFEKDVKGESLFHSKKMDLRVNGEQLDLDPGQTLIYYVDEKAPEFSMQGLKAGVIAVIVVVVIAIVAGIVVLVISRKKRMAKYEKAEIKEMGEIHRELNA

Row | Binder | pH inflection point [1] | EC50 [3] | EC50 [4] | EC50 [5] | EC50 [6] | ratio (pH 6.0/7.4) [7] | EC50 [8] | pH inflection point [9] | EC50 [10] | EC50 [11] | EC50 [12] | EC50 [13] | EC50 [14] | ratio (pH 6.0/7.4) [21] | other results
1 | BA-105-01-01 7376-vcMMAE (antibody, V domains shown, antibody conjugated to vcMMAE; chain and residues of attachment not stated) VH: QVQLQQSGAELAKPGASVKVSCKASGYTFTSYWMHWVKQRPGQGLEWIGYIRPSTGYTEYNQKFKDKATLTADKSSSTAYMQLSSLTFEDSAVYYCGRGDNWVGFANWGQGTLVTVSA VL: QIVLTQSPAIMSASLGEEIALTCSASSSISYMHWYQQKSGTSPKLLIYSTSNLASGVPSRFSGSGSGTFYSLTISSVEAEDAADYFCHQWSTYHTFGSGTKLEIK | 5.07 pH | 1.74 µg/mL | 0.301 µg/mL | 0.0147 µg/mL | 0.375 µg/mL | 0.93 | 0.0311 µg/mL | 6.71 pH | 0.129 µg/mL | 1.36 µg/mL | 0.024 µg/mL | 0.0234 µg/mL | 0.112 µg/mL | – | IC50 for the in vitro killing of Colo205 cells, pH6.0 [2]: 12.9 ng/mL; IC50 for the in vitro killing of Colo205 cells, pH7.4 [2]: 16.8 ng/mL; ratio (pH7.4/pH6.0) of the IC50 for the in vitro killing of Colo205 cells [2]: 1.3
2 | BA-105-06-01 (antibody, V domains shown, Humanized) VH: EVQLVQSGAEVKKPGATVKISCKVSGYTFTSYWMHWIRQPPGKGLEWIGYIRPSTGYTEYNQKFKDRFTISRDNSKNTLYLQMNSLRAEDTAVYYCGRGDNWVGFANWGQGTLVTVSS VL: EIVLTQSPDFQSVTPKEKVTITCSASSSISYMHWYQQKPGKAPKLLIYSTSKLASGVPDRFSGSGSGTDFTLKISRVEAEDVGVYYCHQWSTYETFGQGTKVEIK | – | – | – | – | – | – | – | – | – | – | – | – | – | – | ratio (pH7.4/pH6.0) [15]: 17.1; IC50 [16]: 0.168 µg/mL; IC50 [17]: 0.00371 µg/mL; IC50 [18]: 0.0635 µg/mL; IC50 [19]: 0.0299 µg/mL; ratio (pH7.4/pH6.0) [20]: 5.6
3 | BA-105.4-01-02 8316-vcMMAE (antibody, V domains shown, antibody conjugated to vcMMAE; chain and residues of attachment not stated) VH: EVQLVQSGAEVKKPGESLRISCKGSGYTFTSYWMHWIRQSPSRGLEWLGYIRPSTGYTEYNQKFKDRVTISADKSISTAYLQWSSLKASDTAMYYCGRGDNWVGFANWGQGTLVTVSS VL: EIVLTQSPDFQSVTPKEKVTITCSASSSISYMHWYQQKPGKAPKLLIYSTSNLASGVPDRFSGSGSGTDFTLKISRVEAEDVGVYYCHQWSTYETFGQGTKVEIK | 6.3 pH | 17.7 µg/mL | 0.15 µg/mL | 0.127 µg/mL | 0.153 µg/mL | 2.75 | 0.0877 µg/mL | – | 0.0637 µg/mL | 4.72 µg/mL | 0.0392 µg/mL | 0.257 µg/mL | 0.0849 µg/mL | 1.75 | –
4 | BA-105.4-01-05 8317-vcMMAE (antibody, V domains shown, antibody conjugated to vcMMAE; chain and residues of attachment not stated) VH: EVQLVQSGAEVKKPGATVKISCKVSGYTFTSYWMHWIRQPPGKGLEWIGYIRPSTGYTEYNQKFKDRFTISRDNSKNTLYLQMNSLRAEDTAVYYCGRGDNWVGFANWGQGTLVTVSS VL: EIVLTQSPDFQSVTPKEKVTITCSASSSISYMHWYQQKPGKAPKLLIYSTSNLASGVPDRFSGSGSGTDFTLKISRVEAEDVGVYYCHQWSTYETFGQGTKVEIK | 6.28 pH | 43.4 µg/mL | 0.188 µg/mL | 0.0703 µg/mL | 0.203 µg/mL | 2.76 | 0.0659 µg/mL | 6.98 pH | 0.0772 µg/mL | 5.54 µg/mL | 0.0306 µg/mL | 0.3 µg/mL | 0.109 µg/mL | 2.39 | –
5 | BA-105.4-02-01 8318-vcMMAE (antibody, V domains shown, antibody conjugated to vcMMAE; chain and residues of attachment not stated) VH: EVQLVQSGAEVKKPGATVKISCKVSGYTFTSYWMHWVRQAPGQGLEWMGYIRPSTGYTEYNQKFKDRFTISRDNSKNTLYLQMNSLRAEDTAVYYCGRGDNWVGFANWGQGTLVTVSS VL: EIVMTQSPATLSVSPGERATLSCSASSSISYMHWYQQKPGKAPKLLIYSTSNLASGVPSRFSGSGSGTEFTLTISSLQPDDFATYYCHQWSTYETFGQGTKVEIK | 6.16 pH | 61.1 µg/mL | 0.464 µg/mL | 0.22 µg/mL | 0.693 µg/mL | 3.61 | 0.0809 µg/mL | 6.83 pH | 0.206 µg/mL | 7.96 µg/mL | 0.0324 µg/mL | 0.249 µg/mL | 0.335 µg/mL | 6.74 | –
